By Kd is commonly meant the equilibrium constant for the complex coming apart.

Read-outs that look alike come from different tables or passages of the source.

Holding throughout (assay): EMSA
Data set [1] concerns the target T1, CcrA (Staphylococcus aureus 923 (USA300, …, UniProt Q84BN8 1-449)).
T1 sequence: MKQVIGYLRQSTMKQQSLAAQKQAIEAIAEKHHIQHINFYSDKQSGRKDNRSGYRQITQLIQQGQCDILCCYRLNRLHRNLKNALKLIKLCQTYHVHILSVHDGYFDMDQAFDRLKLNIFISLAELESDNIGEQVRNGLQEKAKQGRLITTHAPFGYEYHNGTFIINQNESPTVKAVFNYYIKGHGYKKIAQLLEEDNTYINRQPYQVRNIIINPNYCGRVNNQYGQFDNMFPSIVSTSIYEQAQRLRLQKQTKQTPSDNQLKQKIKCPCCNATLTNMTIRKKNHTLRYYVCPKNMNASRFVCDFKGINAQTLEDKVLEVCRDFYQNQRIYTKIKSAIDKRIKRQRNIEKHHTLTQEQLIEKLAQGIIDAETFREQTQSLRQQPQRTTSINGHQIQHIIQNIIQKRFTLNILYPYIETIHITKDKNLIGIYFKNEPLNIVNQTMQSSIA

Data set [2] deals with T2, CcrB (Staphylococcus aureus 923 (USA300, …, UniProt Q9XB94 1-542)).
T2 sequence: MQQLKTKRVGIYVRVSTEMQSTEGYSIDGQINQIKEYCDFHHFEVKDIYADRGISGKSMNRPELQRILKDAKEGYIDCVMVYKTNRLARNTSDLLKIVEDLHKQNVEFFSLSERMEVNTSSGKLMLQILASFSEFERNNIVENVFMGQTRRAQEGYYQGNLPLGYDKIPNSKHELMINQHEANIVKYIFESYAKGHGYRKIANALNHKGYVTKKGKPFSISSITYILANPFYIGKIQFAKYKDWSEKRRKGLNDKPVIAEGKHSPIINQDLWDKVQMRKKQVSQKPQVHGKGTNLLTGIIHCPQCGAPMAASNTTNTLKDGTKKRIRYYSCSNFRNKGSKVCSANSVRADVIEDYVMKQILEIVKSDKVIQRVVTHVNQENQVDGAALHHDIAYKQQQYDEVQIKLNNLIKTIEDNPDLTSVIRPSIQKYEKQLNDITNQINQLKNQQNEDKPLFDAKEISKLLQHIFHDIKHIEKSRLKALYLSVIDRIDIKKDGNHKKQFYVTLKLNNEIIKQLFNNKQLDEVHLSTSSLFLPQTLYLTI

The target of data set [3] is T1, CcrA. The source holds these as a separate data set.
Data set [4] addresses T1, CcrA. This is another data set of the same source.
For data set [5], the target named is T2, CcrB. The source holds these as a separate data set.
The target in data set [6] is T1, CcrA. The source holds these as a separate data set.

B1: attSCC68 (dsDNA)
DNA 1: TTATTTTTTCAAAAACCGCATCATTAACTGATAAGCAGAAGCTTATCATAAATGATGCGGTTTTTTCA
DNA 2: TGAAAAAACCGCATCATTTATGATAAGCTTCTGCTTATCAGTTAATGATGCGGTTTTTGAAAAAATAA
With B1, the binding result in data set [1] is listed as “no binding”. For the same molecule, in data set [2], the equilibrium dissociation constant (Kd) is about 14.1 nM.

B2: attR72 (dsDNA)
DNA 1: TTAATTTTTCAAAAACCGCATCATTAACTGATAAGCAGAGGCGTATCATAAGTAAAACTAAAAAATTCTGTA
DNA 2: TACAGAATTTTTTAGTTTTACTTATGATACGCCTCTGCTTATCAGTTAATGATGCGGTTTTTGAAAAATTAA
With B2, the binding result in data set [1] is recorded as “no binding”. In data set [2], this molecule gave a Kd of about 14.1 nM.

B3: attB62 (dsDNA)
DNA 1: TACAGAGCATTTAAGATTATGCGAGGAGAGGCGTATCATAAGTAAAACTAAAAAATTCTGTA
DNA 2: TACAGAATTTTTTAGTTTTACTTATGATACGCCTCTCCTCGCATAATCTTAAATGCTCTGTA
Consider B3, for which the binding result in data set [3] was “binds”. In addition, the Kd in data set [2] is about 14.1 nM.

B4: attB ns half site 62 (dsDNA)
DNA 1: TACAGAGCATTTAAGATTATGCGAGGAGATGGCTGAGAACACCCCTTGTGAGGTACTTCATG
DNA 2: CATGAAGTACCTCACAAGGGGTGTTCTCAGCCATCTCCTCGCATAATCTTAAATGCTCTGTA
B4: the binding result in data set [4] is recorded as “binds”.

B5: SCC half site 36 (dsDNA)
DNA 1: ATTTTTCAAAAACCGCATCATTAACTGATAAGCAGA
DNA 2: TCTGCTTATCAGTTAATGATGCGGTTTTTGAAAAAT
On to B5, for which the binding result in data set [5] was “binds”; in data set [6], “no binding”.

B6: attL58 (dsDNA)
DNA 1: TACAGAGCATTTAAGATTATGCGAGGAGAAGCTTATCATAAATGATGCGGTTTTTTCA
DNA 2: TGAAAAAACCGCATCATTTATGATAAGCTTCTCCTCGCATAATCTTAAATGCTCTGTA
Take B6: in data set [3], the binding result is given as “binds”. Moreover, in data set [2], the dissociation constant Kd is about 14.1 nM.

The record behind these values is paper PMC3714108.
